The record followed here is patent US20220098635A1.

The target in assay [1] is RGD peptide (cyclo(Arg-Gly-Asp-D-Phe-Cys)). The assay is described as follows: method not stated.
Assay [2] has the same target.
Assay [3] has the same target. The source holds these as a separate data set.
Assay [4] shares this target. This is another data set of the same source.
Assay [5] shares this target. The assay is described as follows: STM junction, bare probe (NA), RGD peptide on substrate only, gap Z0 + 2 nm.
For assay [6] the target is unchanged. As to the kind of experiment: cell-based or functional assay.

Read-outs that look alike come from different tables or passages of the source.

The Kd is the constant that tells how readily two partners part at equilibrium. Lower therefore signals tighter binding.

αVβ3 Integrin (receptor), sequence (P06756 31-992): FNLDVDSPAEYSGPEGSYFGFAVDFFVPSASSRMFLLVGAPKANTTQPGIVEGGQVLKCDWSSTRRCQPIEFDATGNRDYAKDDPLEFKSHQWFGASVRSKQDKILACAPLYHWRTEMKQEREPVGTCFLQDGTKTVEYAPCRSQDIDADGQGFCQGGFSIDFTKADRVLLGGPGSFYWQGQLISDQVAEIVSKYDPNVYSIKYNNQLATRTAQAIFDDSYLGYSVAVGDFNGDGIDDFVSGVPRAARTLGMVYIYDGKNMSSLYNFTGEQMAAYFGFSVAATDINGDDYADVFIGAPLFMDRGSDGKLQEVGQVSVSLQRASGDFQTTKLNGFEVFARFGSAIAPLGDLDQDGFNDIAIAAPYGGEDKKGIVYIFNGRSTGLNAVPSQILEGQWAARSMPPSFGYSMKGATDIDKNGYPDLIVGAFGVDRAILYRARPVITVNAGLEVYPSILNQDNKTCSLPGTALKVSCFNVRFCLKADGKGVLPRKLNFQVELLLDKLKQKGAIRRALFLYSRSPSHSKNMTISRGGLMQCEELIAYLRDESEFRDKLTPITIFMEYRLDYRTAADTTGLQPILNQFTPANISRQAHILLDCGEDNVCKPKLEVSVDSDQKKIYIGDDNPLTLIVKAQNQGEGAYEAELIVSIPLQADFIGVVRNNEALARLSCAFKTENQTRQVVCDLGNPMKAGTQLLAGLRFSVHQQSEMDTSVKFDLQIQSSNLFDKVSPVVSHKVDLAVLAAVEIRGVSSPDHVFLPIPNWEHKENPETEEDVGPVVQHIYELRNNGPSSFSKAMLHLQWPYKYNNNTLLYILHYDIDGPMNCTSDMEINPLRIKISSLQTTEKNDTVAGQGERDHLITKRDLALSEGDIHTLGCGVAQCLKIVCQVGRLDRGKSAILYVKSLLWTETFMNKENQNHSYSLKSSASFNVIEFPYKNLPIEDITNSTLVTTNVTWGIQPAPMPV
αVβ3 Integrin (receptor), sequence (P05106 27-718, further chain): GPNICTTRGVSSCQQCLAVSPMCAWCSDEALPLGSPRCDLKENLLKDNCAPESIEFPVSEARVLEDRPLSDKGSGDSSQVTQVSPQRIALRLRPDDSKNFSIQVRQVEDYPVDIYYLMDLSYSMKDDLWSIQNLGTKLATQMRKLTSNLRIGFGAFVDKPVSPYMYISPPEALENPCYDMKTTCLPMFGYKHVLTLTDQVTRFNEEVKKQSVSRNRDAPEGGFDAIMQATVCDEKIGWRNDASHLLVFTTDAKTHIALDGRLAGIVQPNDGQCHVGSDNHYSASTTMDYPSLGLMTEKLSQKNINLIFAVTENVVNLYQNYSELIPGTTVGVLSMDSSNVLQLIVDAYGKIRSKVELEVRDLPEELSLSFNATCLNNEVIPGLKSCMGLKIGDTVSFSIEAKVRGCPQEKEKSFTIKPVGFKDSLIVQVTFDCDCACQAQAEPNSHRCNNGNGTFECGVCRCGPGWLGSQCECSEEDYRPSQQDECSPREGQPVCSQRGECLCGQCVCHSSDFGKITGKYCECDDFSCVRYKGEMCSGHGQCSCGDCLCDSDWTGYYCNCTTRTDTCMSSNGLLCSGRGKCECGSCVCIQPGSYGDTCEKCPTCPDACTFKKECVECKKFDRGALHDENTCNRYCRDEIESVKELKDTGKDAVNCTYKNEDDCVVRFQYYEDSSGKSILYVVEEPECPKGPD

As for αVβ3 Integrin (receptor), the Kd in assay [1] worked out at 10 nM. Also, the Frequency with which sweeps yielded an IV curve was 10.5% in assay [2], 35.9% in assay [3], 23.7% in assay [4] and 0% in assay [5]. For the same substance, the Peak Conductance (nS), Binding Mode NS-S in assay [6] is 0.38 nS.
